In the supplement of paper PMC10126150:
± gives the standard deviation of the averaged measurements.

System: ATP
Assay: switch fluorescence ratio, 500 uM ATP over buffer (Cy3 cluster intensity, sum of 5 cycles each) (fold (ratio)); higher = stronger signal-on switching upon ATP binding; sequences stand for … in TCGTCGGCAGCGTCAGATGTGTATAAGAGACAGTTTTTTTTTTTTTTTTTTTTTTTTT…TC
Settings: aptamer strand: ATP DNA aptamer (quencher-CACCTGGGGGAGTATTGCGGAGGAAGG + anchor), 100 nM annealed; ATP concentration: 500 uM
Outline: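 Imaging in selection buffer was followed by imaging after 15 min with 500 uM ATP at 22 °C, for Cy3-labelled switching-strand clusters annealed to 100 nM quencher-labelled ATP aptamer on a modified Illumina MiSeq flow-cell. Five of these buffer/ATP cycles ran, separated by NaOH stripping and re-annealing. The fluorescence ratio per cluster is summed target-cycle over summed buffer-cycle Cy3 intensity, averaged per switch-domain sequence; clusters outside 100-1000 RFU were removed.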
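Note: ATP exposure 15 min at 22 °C before imaging.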

TTGAAGAAAG
switch fluorescence ratio: 0.976 ± 0.021

TTGAAGAGGT
switch fluorescence ratio: 0.976 ± 0.049

TTGAAGATAA
switch fluorescence ratio: 1.02 ± 0.033

TTGAAGCGGA
switch fluorescence ratio: 1.03 ± 0.03

TTGAAGCGGC
switch fluorescence ratio: 1.59 ± 0.76

TTGAAGCTGG
switch fluorescence ratio: 0.9746 ± 0.0088

TTGAAGGGGA
switch fluorescence ratio: 0.9736 ± 0.0039

TTGAAGGGGC
switch fluorescence ratio: 0.997 ± 0.055

TTGAAGTGCG
switch fluorescence ratio: 1.02 ± 0.049

TTGAAGTGTG
switch fluorescence ratio: 1.02 ± 0.015

TTGAAGTTAC
switch fluorescence ratio: 1.111 ± 0.0072

TTGAAGTTAG
switch fluorescence ratio: 0.99 ± 0.02

TTGAATCGGG
switch fluorescence ratio: 0.944 ± 0.035

TTGAATGAGG
switch fluorescence ratio: 0.95006 ± 0.00095

TTGACAGGGT
switch fluorescence ratio: 1.03 ± 0.07

TTGACCAAAA
switch fluorescence ratio: 1.03 ± 0.055

TTGACCGATT
switch fluorescence ratio: 0.978 ± 0.041

TTGACGAAGG
switch fluorescence ratio: 0.95 ± 0.026

TTGACGACAC
switch fluorescence ratio: 1.67 ± 0.45

TTGACGAGTT
switch fluorescence ratio: 1.06 ± 0.081

TTGACGATGT
switch fluorescence ratio: 1.17 ± 0.19

TTGACGCAGG
switch fluorescence ratio: 1.06 ± 0.012

TTGACGCTAA
switch fluorescence ratio: 2.37 ± 0.65

TTGACGGAGG
switch fluorescence ratio: 0.983 ± 0.032

TTGACGGGCT
switch fluorescence ratio: 1.05 ± 0.043

TTGACGGTGG
switch fluorescence ratio: 1.05 ± 0.086

TTGACGGTGT
switch fluorescence ratio: 1.028 ± 0.0021

TTGACGTGTC
switch fluorescence ratio: 1 ± 0.043

TTGACTGTTC
switch fluorescence ratio: 1.04 ± 0.043

TTGACTTACT
switch fluorescence ratio: 1.18 ± 0.085

TTGACTTATA
switch fluorescence ratio: 1.01 ± 0.022

TTGAGAAAAG
switch fluorescence ratio: 1.06 ± 0.099

TTGAGACGGT
switch fluorescence ratio: 1 ± 0.017

TTGAGAGTTG
switch fluorescence ratio: 0.984 ± 0.046

TTGAGCAAGT
switch fluorescence ratio: 1.14 ± 0.075

TTGAGCATGG
switch fluorescence ratio: 1.06 ± 0.051

TTGAGCTGTG
switch fluorescence ratio: 1.02 ± 0.019

TTGAGGAAGT
switch fluorescence ratio: 1.06 ± 0.058

TTGAGGAATA
switch fluorescence ratio: 0.9922 ± 0.008

TTGAGGCGAT
switch fluorescence ratio: 1.23 ± 0.22

TTGAGGGAGC
switch fluorescence ratio: 1.09 ± 0.038

TTGAGGGGA
switch fluorescence ratio: 0.982 ± 0.021

TTGAGGGGAA
switch fluorescence ratio: 0.999 ± 0.025

TTGAGGGTAA
switch fluorescence ratio: 0.99263 ± 0.00084

TTGAGGGTGC
switch fluorescence ratio: 1.01 ± 0.022

TTGAGGGTGG
switch fluorescence ratio: 1.0305 ± 0.0005

TTGAGGTACT
switch fluorescence ratio: 0.971 ± 0.052

TTGAGGTAGT
switch fluorescence ratio: 0.984 ± 0.014

TTGAGGTATG
switch fluorescence ratio: 0.9838 ± 0.0046

TTGAGGTGGC
switch fluorescence ratio: 0.982 ± 0.018

TTGAGGTTTG
switch fluorescence ratio: 1.03 ± 0.019

TTGAGTAGGT
switch fluorescence ratio: 0.987 ± 0.031

TTGAGTGCTT
switch fluorescence ratio: 0.987 ± 0.028

TTGAGTGTGG
switch fluorescence ratio: 0.998 ± 0.03

TTGAGTGTTG
switch fluorescence ratio: 1.01 ± 0.049

TTGAGTTCTC
switch fluorescence ratio: 0.978 ± 0.016

TTGAGTTTGG
switch fluorescence ratio: 0.985 ± 0.022

TTGATAGCCT
switch fluorescence ratio: 1.06 ± 0.059

TTGATAGTAA
switch fluorescence ratio: 1.04 ± 0.09

TTGATATGAG
switch fluorescence ratio: 0.989 ± 0.048

TTGATCAGTG
switch fluorescence ratio: 1.01 ± 0.015

TTGATCCGGG
switch fluorescence ratio: 1.1 ± 0.055

TTGATCGGGG
switch fluorescence ratio: 1.01 ± 0.028

TTGATCTAAT
switch fluorescence ratio: 1 ± 0.011

TTGATCTTGA
switch fluorescence ratio: 0.955 ± 0.085

TTGATGAGTG
switch fluorescence ratio: 1.01 ± 0.033

TTGATGGCTA
switch fluorescence ratio: 0.983 ± 0.021

TTGATGGGAC
switch fluorescence ratio: 1.12 ± 0.021

TTGATGTGGT
switch fluorescence ratio: 0.997 ± 0.084

TTGATTATCC
switch fluorescence ratio: 0.99 ± 0.019

TTGATTATTG
switch fluorescence ratio: 0.999 ± 0.032

TTGATTTTGC
switch fluorescence ratio: 0.993 ± 0.013

TTGATTTTGG
switch fluorescence ratio: 0.988 ± 0.026

TTGCAAGTCA
switch fluorescence ratio: 1.05 ± 0.018

TTGCAAGTTG
switch fluorescence ratio: 1.01 ± 0.021

TTGCACCCGT
switch fluorescence ratio: 1.04 ± 0.053

TTGCACGTAA
switch fluorescence ratio: 1.66 ± 0.42

TTGCAGATGG
switch fluorescence ratio: 0.999 ± 0.057

TTGCAGGTGG
switch fluorescence ratio: 1.03 ± 0.011

TTGCAGTTGT
switch fluorescence ratio: 0.993 ± 0.041

TTGCATGCCG
switch fluorescence ratio: 0.972 ± 0.036

TTGCATTTTT
switch fluorescence ratio: 1.01 ± 0.034

TTGCCGCTGT
switch fluorescence ratio: 1.18 ± 0.22

TTGCCGGGGG
switch fluorescence ratio: 1.24 ± 0.38

TTGCCGGGGT
switch fluorescence ratio: 1.1 ± 0.16

TTGCCGGTTT
switch fluorescence ratio: 1.05 ± 0.021

TTGCCTAACT
switch fluorescence ratio: 1.04 ± 0.028

TTGCCTAATG
switch fluorescence ratio: 0.972 ± 0.035

TTGCCTTCTT
switch fluorescence ratio: 1.03 ± 0.033

TTGCCTTTTT
switch fluorescence ratio: 0.998 ± 0.028

TTGCGAATGT
switch fluorescence ratio: 0.997 ± 0.038

TTGCGACCTG
switch fluorescence ratio: 1.05 ± 0.04

TTGCGAGAGA
switch fluorescence ratio: 0.993 ± 0.035

TTGCGAGGTC
switch fluorescence ratio: 0.985 ± 0.037

TTGCGGGATG
switch fluorescence ratio: 1.04 ± 0.051

TTGCGGGGTA
switch fluorescence ratio: 0.978 ± 0.013

TTGCGGGGTG
switch fluorescence ratio: 1.01 ± 0.045

TTGCGGGTTT
switch fluorescence ratio: 1.29 ± 0.38

TTGCGGTGTG
switch fluorescence ratio: 1 ± 0.024

TTGCGTAAAA
switch fluorescence ratio: 0.961 ± 0.047

TTGCGTAAGG
switch fluorescence ratio: 1.06 ± 0.056

TTGCGTACGG
switch fluorescence ratio: 1.01 ± 0.053

TTGCGTGATG
switch fluorescence ratio: 1.02 ± 0.029

TTGCGTGGGG
switch fluorescence ratio: 1.005 ± 0.0065

TTGCTAATGC
switch fluorescence ratio: 1.18 ± 0.23

TTGCTACGGA
switch fluorescence ratio: 1.04 ± 0.013

TTGCTAGTTA
switch fluorescence ratio: 0.971 ± 0.037

TTGCTATGAA
switch fluorescence ratio: 1.01 ± 0.054

TTGCTATTCG
switch fluorescence ratio: 0.992 ± 0.05

TTGCTATTTT
switch fluorescence ratio: 1 ± 0.028

TTGCTCTCTG
switch fluorescence ratio: 1.03 ± 0.031

TTGCTGCAAA
switch fluorescence ratio: 1.1 ± 0.12

TTGCTGGCGC
switch fluorescence ratio: 1.036 ± 0.0055

TTGCTGGGG
switch fluorescence ratio: 0.972 ± 0.037

TTGCTTCGTT
switch fluorescence ratio: 1.02 ± 0.029

TTGCTTCTAG
switch fluorescence ratio: 0.979 ± 0.043

TTGCTTGTAT
switch fluorescence ratio: 0.9992 ± 0.0098

TTGCTTTATT
switch fluorescence ratio: 0.987 ± 0.016

TTGGAAAAAT
switch fluorescence ratio: 1.05 ± 0.071

TTGGAAAAGT
switch fluorescence ratio: 0.988 ± 0.036

TTGGAAAATA
switch fluorescence ratio: 1.009 ± 0.0042

TTGGAAAGTG
switch fluorescence ratio: 1.05 ± 0.13

TTGGAAAGTT
switch fluorescence ratio: 1.01 ± 0.028

TTGGAAATGG
switch fluorescence ratio: 1.03 ± 0.045

TTGGAACGAT
switch fluorescence ratio: 1.02 ± 0.07

TTGGAAGGGG
switch fluorescence ratio: 1.13 ± 0.24

TTGGAAGTGC
switch fluorescence ratio: 1 ± 0.056

TTGGAATGGA
switch fluorescence ratio: 0.989 ± 0.029

TTGGAATGT
switch fluorescence ratio: 1.029 ± 0.0083

TTGGAATTCC
switch fluorescence ratio: 0.989 ± 0.05

TTGGACGGAA
switch fluorescence ratio: 1.224 ± 0.0051

TTGGACTAGG
switch fluorescence ratio: 1.02 ± 0.024

TTGGAGAGTG
switch fluorescence ratio: 0.963 ± 0.021

TTGGAGCATG
switch fluorescence ratio: 1.28 ± 0.049

TTGGAGGAAA
switch fluorescence ratio: 1.09 ± 0.13

TTGGAGGCGA
switch fluorescence ratio: 0.994 ± 0.062

TTGGAGGGCG
switch fluorescence ratio: 1.03 ± 0.017

TTGGAGGGTT
switch fluorescence ratio: 0.992 ± 0.017

TTGGAGTGGT
switch fluorescence ratio: 1.03 ± 0.013

TTGGAGTTGT
switch fluorescence ratio: 1.02 ± 0.098

TTGGATATTC
switch fluorescence ratio: 0.997 ± 0.033

TTGGATCCGC
switch fluorescence ratio: 1.32 ± 0.45

TTGGATCCGG
switch fluorescence ratio: 0.98 ± 0.039

TTGGATGAGG
switch fluorescence ratio: 0.973 ± 0.048

TTGGATGCGG
switch fluorescence ratio: 1.0022 ± 0.00011

TTGGATGGTT
switch fluorescence ratio: 1.01 ± 0.03

TTGGATGTAA
switch fluorescence ratio: 1 ± 0.036

TTGGATTTCA
switch fluorescence ratio: 0.972 ± 0.045

TTGGCACAAT
switch fluorescence ratio: 1.05 ± 0.026

TTGGCACGGG
switch fluorescence ratio: 1.03 ± 0.022

TTGGCAGGGG
switch fluorescence ratio: 1.06 ± 0.047

TTGGCCGATG
switch fluorescence ratio: 1.001 ± 0.0098

TTGGCCGCAC
switch fluorescence ratio: 2.67 ± 0.049

TTGGCCGGAT
switch fluorescence ratio: 0.9532 ± 0.0042

TTGGCGCCTG
switch fluorescence ratio: 0.9947 ± 0.0075

TTGGCGGAGG
switch fluorescence ratio: 1.007 ± 0.0058

TTGGCGGGGC
switch fluorescence ratio: 1.02 ± 0.012

TTGGCGTTGG
switch fluorescence ratio: 0.987 ± 0.026

TTGGCGTTTT
switch fluorescence ratio: 1.04 ± 0.026

TTGGCTGGCT
switch fluorescence ratio: 1.08 ± 0.071

TTGGCTGTAG
switch fluorescence ratio: 1.13 ± 0.13

TTGGCTTAGG
switch fluorescence ratio: 1.05 ± 0.096

TTGGCTTAGT
switch fluorescence ratio: 0.991 ± 0.034

TTGGGAAAGG
switch fluorescence ratio: 1.002 ± 0.0053

TTGGGAATAC
switch fluorescence ratio: 3.23 ± 0.53

TTGGGACCGT
switch fluorescence ratio: 1 ± 0.0015

TTGGGACGAC
switch fluorescence ratio: 1.022 ± 0.0084

TTGGGACTTC
switch fluorescence ratio: 1.03 ± 0.012

TTGGGAGGCT
switch fluorescence ratio: 1 ± 0.044

TTGGGAGGGC
switch fluorescence ratio: 1.18 ± 0.27

TTGGGAGTGT
switch fluorescence ratio: 0.994 ± 0.031

TTGGGATTGT
switch fluorescence ratio: 0.989 ± 0.014

TTGGGCAACA
switch fluorescence ratio: 1.05 ± 0.079

TTGGGCAACG
switch fluorescence ratio: 1.06 ± 0.022

TTGGGCAATA
switch fluorescence ratio: 1.77 ± 0.35

TTGGGCAGCA
switch fluorescence ratio: 0.99411 ± 0.00084

TTGGGCCGGT
switch fluorescence ratio: 1 ± 0.037

TTGGGCGATT
switch fluorescence ratio: 1.06 ± 0.045

TTGGGCGGAA
switch fluorescence ratio: 1.03 ± 0.071

TTGGGCGGCG
switch fluorescence ratio: 0.982 ± 0.074

TTGGGCGGGA
switch fluorescence ratio: 0.968 ± 0.099

TTGGGCGTTT
switch fluorescence ratio: 1 ± 0.043

TTGGGCTACG
switch fluorescence ratio: 1.002 ± 0.0048

TTGGGCTCAG
switch fluorescence ratio: 0.982 ± 0.013

TTGGGCTGGA
switch fluorescence ratio: 0.961 ± 0.054

TTGGGCTTGG
switch fluorescence ratio: 0.997 ± 0.033

TTGGGGAAAA
switch fluorescence ratio: 1.04 ± 0.054

TTGGGGACAT
switch fluorescence ratio: 0.98 ± 0.043

TTGGGGAGAT
switch fluorescence ratio: 0.989 ± 0.014

TTGGGGAGGT
switch fluorescence ratio: 1.01 ± 0.037

TTGGGGCAAC
switch fluorescence ratio: 1.03 ± 0.047

TTGGGGCTGG
switch fluorescence ratio: 1.01 ± 0.013

TTGGGGCTT
switch fluorescence ratio: 1.32 ± 0.41

TTGGGGCTTG
switch fluorescence ratio: 0.998 ± 0.012

TTGGGGGAAC
switch fluorescence ratio: 1 ± 0.014

TTGGGGGAGT
switch fluorescence ratio: 1.03 ± 0.022

TTGGGGGATC
switch fluorescence ratio: 0.982 ± 0.015

TTGGGGGATT
switch fluorescence ratio: 1 ± 0.022

TTGGGGGCAC
switch fluorescence ratio: 1.024 ± 0.0069

TTGGGGGCCC
switch fluorescence ratio: 1.01 ± 0.033
